Source: the supplement of paper PMC10567573
± gives the standard deviation.

Assay: protein stability index of a GFP-peptide fusion (GPS, HEK-293T) (PSI 1-6); higher = more stable
Conditions: c terminus: a fixed tail appended
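Note: 24-mer peptide tiles fused after GFP, lentivirally expressed, FACS-sorted into six equal bins by GFP/DsRed ratio, decoded by Illumina sequencing, PSI is the read-weighted mean bin number.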

| Sequence | protein stability index (treatment: DMSO) | protein stability index (treatment: MLN4924 1 uM, 8 h) |
| --- | --- | --- |
| MEKATVPVAAATAAEGEGSPPAVA [ANKRD17] | 5.67 ± 0.24 | 5.65 ± 0.11 |
| VPTVSRPYSFIEFDTFIQKTKKLY [SEC22B] | 2.3 ± 0.34 | 2.47 ± 0.17 |
| IQQLLEPQQYMAFLPHHIMVKIFR [FBXO34] | 2.13 ± 0.31 | 2.53 ± 0.29 |
| KDRECQSQSLALKEQNNLKQLEFG [ZNF8] | 4.56 ± 0.3 | 4.78 ± 0.63 |
| AMVTADSKYCYGPQGSRSPYIPPH [FKBP8] | 3.27 ± 0.42 | 3.13 ± 0.26 |
| SFAQLKNLKWLDLKDNPLDPVLAK [LRRC59] | 2.98 ± 0.096 | 2.96 ± 0.33 |
| LIYDFIEDQGGLEAVRQEMRRQEP [WAS] | 2.55 ± 0.28 | 2.75 ± 0.42 |
| LAESGGSPDVLQMLKIHRSDPQLI [TRADD] | 3.16 ± 0.43 | 3.36 ± 0.24 |
| SQAPVNKPKKKKEKKEKEKKKKDK [BRD3] | 5.32 ± 0.32 | 5.3 ± 0.32 |
| CEKTFRDKNTLKDHMRKKQHRKIN [ZNF277] | 3.77 ± 0.21 | 3.71 ± 0.31 |
| IDDRYGDLDSRTDSDIPEIPPSSD [CDS1] | 5.43 ± 0.34 | 5.45 ± 0.19 |
| SKVLSLQDLCCRAVVSCTPVHLVD [RAB40B] | 3.01 ± 0.17 | 2.85 ± 0.32 |
| RFQLLYVACGMVHLLIPELGACVA [DNAAF3] | 2.97 ± 0.17 | 3.39 ± 0.44 |
| VAVLKGEQEKEAQHKDQTAALPLA [MAP2] | 5.28 ± 0.17 | 5.09 ± 0.27 |
| LTSQNIEIKLVSDVTADSKVLEAL [PLD5] | 3.13 ± 0.31 | 3.18 ± 0.43 |
| RFQDGDNILEKEVLPPIHAYGNRT [FEM1B] | 3.96 ± 0.14 | 4.001 ± 0.01 |
| RKPGMSSTARRSRAASSQRAEEED [CHMP4C] | 5.38 ± 0.17 | 5.41 ± 0.25 |
| RTAQSEETRVWHRRDGKWQIVHFH [CAMK2A] | 3.15 ± 0.16 | 3.12 ± 0.26 |
| LTLKVCKPQAPQKLDPTLSSCFFI | 2.37 ± 0.59 | 2.3 ± 0.3 |
| SPVTRTRSLSACNKRVGMYLEGFD [DLC1] | 3 ± 0.3 | 3.19 ± 0.3 |
| GTFCSLDICLAQLEELGTLNVFQT [PTPN9] | 2.93 ± 0.92 | 2.24 ± 0.46 |
| QCSMPLHVAPLLAAAGLHASPMSA [NR2F2] | 2.58 ± 0.26 | 2.63 ± 0.24 |
| YLPRDFSTYRPLPDPSVWSRRYTE [MYORG] | 2.64 ± 0.17 | 2.82 ± 0.29 |

| Sequence | protein stability index (treatment: DMSO) | protein stability index (treatment: MLN4924 1 uM, 8 h) |
| --- | --- | --- |
| KPGPQDTVERPFYDLWASDNPLDR [NOP53] | 4.45 ± 0.43 | 4.38 ± 0.16 |
| TSIGMPSLMYRSPPGAEEPQAPPA [RETREG3] | 5.12 ± 0.12 | 4.92 ± 0.07 |
| PMPVSQECFETLRGDERILSILRH [CHGA] | 3.29 ± 0.23 | 3.02 ± 0.46 |
| EMFLYFEDHGLVTCSADHLIILWK [WDR41] | 2.76 ± 0.4 | 2.68 ± 0.67 |
| TQLTQNAVSCPYLPSNLLKKFRSS [KCNA4] | 3.32 ± 0.37 | 3.39 ± 0.2 |
| ARLLQEGGGGVAAVVVLDQGSRHW [DUSP5] | 2.64 ± 0.97 | 2.44 ± 0.75 |
| DRERQPLLDRARGAAAQGQTQTVA [PI4K2A] | 5.22 ± 0.18 | 5.13 ± 0.28 |
| VLCLLAADEDDDRDVALQIHFTLI [GADD45A] | 3.49 ± 2.2 | 2.15 ± 1 |
| MIARCLLAVRSLRRVGGSRILLRM [NLN] | 2.35 ± 0.74 | 2.05 ± 0.39 |
| CYRENTHQTLKCSALATQYMHCVN [CHCHD3] | 2.17 ± 0.47 | 2.26 ± 0.43 |
| GDLQETTVVTGLGPDTQDLEGQSP [PBXIP1] | 5.62 ± 0.23 | 5.58 ± 0.2 |
| DLRSGTLYSLTLYGLRGPHKADSI [TNXB] | 2.16 ± 0.48 | 1.95 ± 0.27 |
| PYFKSNDVVCKNQDELRNRSVKVI [FAN1] | 3.78 ± 0.16 | 4.01 ± 0.33 |
| KEHWTPEGHSIVGFAMYYFTYDPW [SAT1] | 3.05 ± 0.44 | 3.1 ± 0.43 |
| NSFGAILQGSLFGLAGLLPASYTA [SLC29A1] | 2.21 ± 0.27 | 2.9 ± 0.84 |
| SESSLEMDDERYFNEMSAQGLRPR [CCDC6] | 4.78 ± 0.2 | 4.85 ± 0.22 |
| ALSSPRSRKNATQPPNAEEESGSS [INTS3] | 5.24 ± 0.31 | 5.38 ± 0.24 |
| VGTRQNEELPCTCPLCTSDRGSCV [RHOBTB3] | 4.77 ± 0.27 | 4.93 ± 0.12 |
| GEQDCCGERVVINISGLRFETQLK [KCNA3] | 2.52 ± 0.21 | 2.57 ± 0.35 |
| TTARERPCVRPGVSGSPVTQNHAA [FBF1] | 4.33 ± 0.23 | 4.51 ± 0.3 |
| AHSNAISNCCFTFSGHFLCTSSWD [WDR88] | 2.48 ± 0.49 | 2.3 ± 0.57 |
| AGISPLQQMVASGTGAVVTSLFMT [SLC25A39] | 2.02 ± 0.57 | 2.17 ± 0.5 |
| NGDVSAPSAILRTPESTKPGPVCQ [ANKRD40] | 4.782 ± 0.036 | 4.83 ± 0.13 |

| Sequence | protein stability index (treatment: DMSO) | protein stability index (treatment: MLN4924 1 uM, 8 h) |
| --- | --- | --- |
| DRFYVINYLVRLSFHNLKFDCSTA [ZNF277] | 2.98 ± 0.88 | 2.54 ± 0.43 |
| LSPTQRQKNFELAFTMAENLANCE [SMTNL2] | 3.39 ± 0.19 | 3.67 ± 0.52 |
| RALDRLQEVPHEGPMCDLLWSDPD [PPP2CA] | 4.42 ± 0.34 | 4.66 ± 0.17 |
| HRSSRETRDYAPPSRGHAYRDYGH [RBMY1A1] | 3.87 ± 0.18 | 3.92 ± 0.17 |
| RVVDGTPCSPDSSSVCVQGRCIHA [ADAMTS4] | 4.21 ± 0.35 | 4.39 ± 0.16 |
| EWAALGNMSKEDAMVEFVKLLNRC [ACBD3] | 2.48 ± 0.22 | 2.59 ± 0.3 |
| IEIGCEDKTLAFKMNGYISNANYS [MLH1] | 2.34 ± 0.3 |  |
| EFPEDPEFEAVVRQAELAIERCIF [PI4K2A] | 2.72 ± 0.1 | 2.96 ± 0.22 |
| RERFMECLMIGRDLVRLLQNVARI [INTS3] | 2.31 ± 0.28 | 2.54 ± 0.31 |
| LRVGIPENAPIGTLLLRLNATDPD [PCDHGC5] | 2.92 ± 0.18 | 3.22 ± 0.32 |
| YGETCFPKGRFERKRNPSRKKQHI [ZNF24] | 2.93 ± 0.62 | 3.24 ± 0.6 |
| LGGFRHKVTGVEYHNAGTQTVPKR [IQUB] | 4.03 ± 0.36 | 4.1 ± 0.3 |
| LIQRKKVHVFGDELSLVTLFRCIQ [TNFSF13B] | 2.25 ± 0.67 | 2.04 ± 0.34 |
| TRRSCIDESQISAEEAEDHGRIPD [FAM189A2] | 5.5 ± 0.33 | 5.49 ± 0.15 |
| GQALLTHLYQSSARRYAGPLHHQT [ELAVL3] | 2.4 ± 0.14 | 2.71 ± 0.097 |
| QTESELQELSEVLELLSAPELKSL [FAN1] | 4.1 ± 0.19 | 4.11 ± 0.11 |
| FPELGYSYGGGSASSQHSEGSRSS [DVL3] | 3.39 ± 0.28 | 4.03 ± 0.53 |
| NAEMVQQTTYLEDRPMFMLQCAME [LOXL2] | 3.11 ± 0.25 | 3 ± 0.1 |
| KIGVGAMTWSPLACGIVSGKYDSG [KCNAB2] | 2.81 ± 0.27 | 2.85 ± 0.61 |
| VVAAVGKELIIFRLVAPTEGSLEW [WDR41] | 2.3 ± 0.21 | 2.37 ± 0.28 |
| VDWDEEYPPQMGEEYSQIIYSTKL [BTBD10] | 3.49 ± 0.15 | 3.55 ± 0.41 |
| RAKEEERLNKLRLESEGSPETLTN [HACD3] | 5.38 ± 0.23 | 5.28 ± 0.26 |
| REEVRGRELTGLKALYETELADAR [LMNB1] | 4.97 ± 0.2 | 4.83 ± 0.27 |

| Sequence | protein stability index (treatment: DMSO) | protein stability index (treatment: MLN4924 1 uM, 8 h) |
| --- | --- | --- |
| LAVRGSRRERELERRELAVEQGER [ZBED3] | 5.05 ± 0.2 | 5.07 ± 0.18 |
| HHREGLLAIFKSGGIPALVKMLGS [CTNNB1] | 2.82 ± 0.39 | 2.71 ± 0.64 |
| GGDGDDMEIFMEEMREIRRKLREL [BEX3] | 3.13 ± 0.49 | 2.04 ± 0.4 |
| TTEVNAWLVHRDPEGSVSGSQPNS [NFE2L1] | 4.33 ± 0.17 | 4.64 ± 0.35 |
| RLDASTSHQNLRVDDLSVEWDAMG [FSD1] | 4.51 ± 0.34 | 4.62 ± 0.34 |
| IQGYRVYYTMDPTQHVNNWMKHNV [PTPRD] | 2.55 ± 0.25 | 2.44 ± 0.47 |
| GAPTSLQTEPQDRSPAPMSCDKST [BCL2L11] | 5.36 ± 0.3 | 5.36 ± 0.1 |
| YPPFWDEDQHRLYQQIKAGAYDFP [CAMK2D] | 2.56 ± 0.21 | 2.64 ± 0.25 |
| YSLELGKAIKQKLWEALCSQGAIS [C22orf31] | 2.4 ± 0.45 | 2.63 ± 0.29 |
| SMENANQENEEKEQVANKGEPLAL [BEX1] | 5 ± 0.26 | 5.11 ± 0.22 |
| AEVRHEIQDGTIHLYIYSIHSIPK [KMT2E] | 2.1 ± 0.76 | 1.51 ± 0.14 |
| SSDESPGSKCSPEDLATAYNNRGQ [TTC32] | 5.28 ± 0.18 | 5.44 ± 0.12 |
| QLRLLQAPLQADLTEQVWKVQDAL [SCARA5] | 3.15 ± 0.28 | 3.12 ± 0.3 |
| MATATPVPPRMGSRAGGPTTPLSP [LMNB1] | 4.21 ± 0.17 | 4.24 ± 0.29 |
| MEIMEAYSVARQFNLTPPICEQAE [KCNAB2] | 3.72 ± 0.18 | 3.65 ± 0.33 |
| PLLCPSYQSYFKTIEELQQKILCS [KRT33B] | 2.56 ± 0.3 | 2.56 ± 0.17 |
| RDHHSTHYRASEEEPEYGEEIKGY [CHGB] | 5.1 ± 0.25 | 5.05 ± 0.13 |
| AETQPQNPPAQPAPNAWQVIKGVL [CLPTM1] | 3.55 ± 0.15 | 3.78 ± 0.25 |
| PTFMIAVFLPIVVLIFKSILFLPC [STEAP1] | 3.22 ± 0.3 | 3.3 ± 0.46 |
| YCAKLCEPQWFYEETESSDDVEVL [C8orf76] | 2.98 ± 0.67 | 3.6 ± 0.79 |
| FDFDDDGTLNREDLSRLVNCLTGE [CIB1] | 4.21 ± 0.21 | 4.29 ± 0.34 |
